# Data taken from publication PMC7226732 (2020).
# B1: V5-Cx40 (wild type) [rat] / GFP-LC3B (expressed in HEK293A cells) [not stated (human cDNA cloned; a plasmid from Dr. Yoshimori also named)] (parent complex)
# chain 1: MGDWSFLGEFLEEVHKHSTVIGKVWLTVLFIFRMLVLGTAAESSWGDEQADFRCDTIQPGCQNVCYDQAFPISHIRYWVLQIIFVSTPSLVYMGHAMHTVRMQEKQKLREAEKAKEAGGTGTYEYLAEKAELSCWKEVNGKIVLQGTLLNTYVCTILIRTAMEVAFMVGQYLLYGIFLDTLHVCRRSPCPHPVNCYVSRPTEKNVFIVFMMAVAGLSLFLSLAELYHLGWKKIRQRLAKSRQGDKHQLLGPSTSLVQGLTPPPDFNQCLKNSPDEKFFSDFSNNMGSRKNPDPLATEEVPNQEQIPEEGFIHTQYGQKPEQPSGASAGHRFPQGYHSDKRRLSKASSKARSDDLSV
# chain 2: not shown
# Variants of: B1
# Experiment: co-immunoprecipitation (IP: V5) and Western blot quantification; HEK293A cell lysates; read off a plot
row,Variant,ratio to parent
1,"chain 1 W4A, chain 1 L7A",~1.9
